Data reported in patent US20240343816A1 (INSTITUTE OF HEALTH AND MEDICINE HEFEI COMPREHENSIVE …, published 2024).

Target: T1, human-derived IL-6Rα protein (human, UniProt P08887 20-365, limits assumed)
T1 construct: Described only as 'soluble human IL-6Rα protein'; also called h-IL-6Rα; soluble human IL-6Rα protein
T1 sequence (looked up): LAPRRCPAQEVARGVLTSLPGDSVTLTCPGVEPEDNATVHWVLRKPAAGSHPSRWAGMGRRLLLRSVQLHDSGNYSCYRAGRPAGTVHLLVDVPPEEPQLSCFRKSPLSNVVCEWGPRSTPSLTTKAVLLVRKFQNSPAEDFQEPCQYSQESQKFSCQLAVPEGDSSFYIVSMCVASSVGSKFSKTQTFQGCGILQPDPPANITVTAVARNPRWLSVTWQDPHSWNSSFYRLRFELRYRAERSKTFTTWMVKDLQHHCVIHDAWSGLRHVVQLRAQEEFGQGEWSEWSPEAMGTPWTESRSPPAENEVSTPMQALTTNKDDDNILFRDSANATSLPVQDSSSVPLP
Experiment: SPR, h-IL-6Rα immobilized on a CM5 chip, 2S3-3D as analyte at 250, 125, 62.5, 31.2 and 15.6 nM
Procedure: The binding kinetics experiments for detecting antigen-antibody were carried out by Biocare Molecular Biological Interaction Platform. […] The binding time was set at 180 s/dissociation time at 200 s. The binding and dissociation of antigen and antibody were observed, and the data were analyzed by the corresponding analysis software.

- Kd: 6.33 nM
B1: nanobody 2S3-3D (VHH)
VHH: QLQLVESGGGLVRPGGSLRLSCTIHGVTLDWYAVGWFRQAPGKEREGVSCISSSDGSTYYADSVKGRFTISRDNVKNTMYLQMNSLKPEDTAVYYCAMVFTTAQAMGVPFHDFEYDYWGPGTQVTVSS
notes: Alpaca-derived VHH expressed from pTT5 in 293F cells; also called anti-h-IL-6Rα nanobody; the nanobody
